Earlier results as cited in patent US20230129812A1, “COMPOSITIONS AND METHODS FOR TREATING PULMONARY HYPERTENSION” (Acceleron Pharma Inc., priority 2020, published 2023).
Substitutions are numbered along the chain they refer to. Names may count otherwise.

T1: ActA (Homo sapiens, UniProt P08476)
T1 sequence (P08476 311-426): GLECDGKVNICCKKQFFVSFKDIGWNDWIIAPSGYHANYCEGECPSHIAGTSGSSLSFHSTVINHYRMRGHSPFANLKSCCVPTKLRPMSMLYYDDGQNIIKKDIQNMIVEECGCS

T2: GDF11 (Homo sapiens, UniProt O95390)
T2 sequence (O95390 299-407): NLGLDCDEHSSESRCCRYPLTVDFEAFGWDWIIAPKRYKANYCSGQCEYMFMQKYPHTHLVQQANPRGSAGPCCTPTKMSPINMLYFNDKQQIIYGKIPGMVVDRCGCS

B1: K74Y: soluble ActRIIB-Fc variant, as reported in WO2006/012627 (protein)
chain: SGRGEAETRECIYYNANWELERTNQSGLERCEGEQDKRLHCYASWANSSGTIELVYKGCWLDDFNCYDRQECVATEENPQVYFCCCEGNFCNERFTHLPEA
modifications: left off: a dimerising Fc or GST
B2: D54A: soluble ActRIIB-Fc variant, as reported in WO2006/012627 (protein)
chain: B1 chain with D36A, Y56K
modifications: left off: a dimerising Fc or GST
B3: D80A: soluble ActRIIB-Fc variant, as reported in WO2006/012627 (protein)
chain: B1 chain with Y56K, D62A
modifications: left off: a dimerising Fc or GST
B4: K74A: soluble ActRIIB-Fc variant, as reported in WO2006/012627 (protein)
chain: B1 chain with Y56A
modifications: left off: a dimerising Fc or GST
B5: D80G: soluble ActRIIB-Fc variant, as reported in WO2006/012627 (protein)
chain: B1 chain with Y56K, D62G
modifications: left off: a dimerising Fc or GST
B6: R56A: soluble ActRIIB-Fc variant, as reported in WO2006/012627 (protein)
chain: B1 chain with R38A, Y56K
modifications: left off: a dimerising Fc or GST
B7: K74I: soluble ActRIIB-Fc variant, as reported in WO2006/012627 (protein)
chain: B1 chain with Y56I
modifications: left off: a dimerising Fc or GST
B8: D80N: soluble ActRIIB-Fc variant, as reported in WO2006/012627 (protein)
chain: B1 chain with Y56K, D62N
modifications: left off: a dimerising Fc or GST
B9: WT (64R): soluble ActRIIB-Fc, wild type with 64R, as reported in WO2006/012627 (protein)
chain: B1 chain with A46R, Y56K
modifications: left off: a dimerising Fc or GST
B10: K55A: soluble ActRIIB-Fc variant, as reported in WO2006/012627 (protein)
chain: B1 chain with K37A, Y56K
modifications: left off: a dimerising Fc or GST
B11: E37A: soluble ActRIIB-Fc variant, as reported in WO2006/012627 (protein)
chain: B1 chain with E19A, Y56K
modifications: left off: a dimerising Fc or GST
B12: K74F: soluble ActRIIB-Fc variant, as reported in WO2006/012627 (protein)
chain: B1 chain with Y56F
modifications: left off: a dimerising Fc or GST
B13: D80M: soluble ActRIIB-Fc variant, as reported in WO2006/012627 (protein)
chain: B1 chain with Y56K, D62M
modifications: left off: a dimerising Fc or GST
B14: D80K: soluble ActRIIB-Fc variant, as reported in WO2006/012627 (protein)
chain: B1 chain with Y56K, D62K
modifications: left off: a dimerising Fc or GST
B15: R40A: soluble ActRIIB-Fc variant, as reported in WO2006/012627 (protein)
chain: B1 chain with R22A, Y56K
modifications: left off: a dimerising Fc or GST
B16: D80I: soluble ActRIIB-Fc variant, as reported in WO2006/012627 (protein)
chain: B1 chain with Y56K, D62I
modifications: left off: a dimerising Fc or GST
B17: D80F: soluble ActRIIB-Fc variant, as reported in WO2006/012627 (protein)
chain: B1 chain with Y56K, D62F
modifications: left off: a dimerising Fc or GST
B18: F82A: soluble ActRIIB-Fc variant, as reported in WO2006/012627 (protein)
chain: B1 chain with Y56K, F64A
modifications: left off: a dimerising Fc or GST
B19: L79A: soluble ActRIIB-Fc variant, as reported in WO2006/012627 (protein)
chain: B1 chain with Y56K, L61A
modifications: left off: a dimerising Fc or GST
B20: W78A: soluble ActRIIB-Fc variant, as reported in WO2006/012627 (protein)
chain: B1 chain with Y56K, W60A
modifications: left off: a dimerising Fc or GST
B21: D80R: soluble ActRIIB-Fc variant, as reported in WO2006/012627 (protein)
chain: B1 chain with Y56K, D62R
modifications: left off: a dimerising Fc or GST
B22: +15tail: soluble ActRIIB-Fc variant with the 15 amino acid tail, as reported in WO2006/012627 (protein)
chain: SGRGEAETRECIYYNANWELERTNQSGLERCEGEQDKRLHCYASWANSSGTIELVKKGCWLDDFNCYDRQECVATEENPQVYFCCCEGNFCNERFTHLPEAGGPEVTYEPPPTAPT
modifications: left off: a dimerising Fc or GST

How the values were obtained:
ActA = molecular target: T1, ActA; design: key to ActA binding relative to WT: *: No observed binding; −−: <⅕ WT binding; −: ~½ WT binding; +: WT; ++: <2x increased binding; +++: ~5x increased binding; ++++: ~10x increased binding; +++++: ~40x increased binding; settings: cited from earlier work; for ActA binding relative to WT: Table 11, reproduced from WO2006/012627; for ratio of activin A (ActA) binding to GDF11 binding, relative to the wild-type K74 molecule: WO2006/012627
GDF11 = molecular target: T2, GDF11; design: key: *: No observed binding; −−: <⅕ WT binding; −: ~½ WT binding; +: WT; ++: <2x increased binding; +++: ~5x increased binding; ++++: ~10x increased binding; +++++: ~40x increased binding; settings: Table 11, reproduced from WO2006/012627; cited from earlier work

Molecule	ActA binding relative to WT (ActA)	ratio of activin A (ActA) binding to GDF11 binding, relative to the wild-type K74 molecule (ActA)	GDF11 binding relative to WT (GDF11)
B1	*	decrease	−− (<⅕ WT binding)
B2	− (~½ WT binding)		*
B3	*		*
B4	+++++ (~40x increased binding)		
B5	*		*
B6	*		*
B7	*	decrease	−− (<⅕ WT binding)
B8	*		*
B9			(+++) (~5x increased binding)
B10	++ (<2x increased binding)		*
B11	*		*
B12	*	decrease	−− (<⅕ WT binding)
B13	*		*
B14	*		*
B15	− (~½ WT binding)		− (~½ WT binding)
B16	*	decrease	−− (<⅕ WT binding)
B17	*		*
B18	++ (<2x increased binding)		− (~½ WT binding)
B19	+		*
B20	*		*
B21	*		*
B22	(+++) (~5x increased binding)		(++++) (~10x increased binding)
